Values quoted from earlier work as cited in paper PMC4618177.
Read-outs that look alike come from different tables or passages of the source.

Assays:
[1] = biological target: ARF5 PB1 (Arabidopsis thaliana) (UniProt P93024)
[2] = biological target: IAA17 PB1 (Arabidopsis thaliana) (UniProt P93830)
[3] = biological target: IAA17 PB1 (Arabidopsis thaliana) (UniProt P93830); remark: listed apart in the source

| Kd [1] | Kd [2] | Kd [3] | Substance |
| --- | --- | --- | --- |
| 860 nM | 73 nM |  | ARF5 PB1 (from UniProt P93024) |
|  |  | 6600 nM | IAA17 PB1 (from UniProt P93830) |
